# Article PMC8376246, “Analysis of the mechanosensor channel functionality of TACAN” (eLife, 2021)
# Molecular target: the molecule itself
# Assay: cryo-EM structure; single-particle cryo-EM; purified protein at 6–7 mg/mL in digitonin, mixed with 2.9 mM FFC8; refined with C2 symmetry
Protein,stoichiometry N,binding result
"Mus musculus full-length TMEM120A (TACAN, residues 1–343), wild type (natural protein, UniProt Q8C1E7 1-343, looked up, TMEM120A (TACAN), Mus musculus, full length, residues 1-343; the model of the structure holds residues 9-72, 76-250 and 262-335; A PreScission protease site lies between TACAN and the C-terminal eGFP; residues of the cut site probably stay on the C-terminus (surmised; expected monomer mass printed as 41,770 Da); Synthetic gene (GeneWiz); also called TACAN^WT; M. musculus TACAN; source: HEK293S …) MQSPPPDPLGDCLRNWEDLQQDFQGIQETHRLYRLKLEELTKLQANCTNSITRQKKRLQELALVLKKCRPSLPSESMEAAQELENQMKERQGLFFDMEAYLPKKNGLYLSLVLGNVNVTLLSKQAKFAYKDEYEKFKLYLTIILIVISFTCRFLLNSRVTDAAFNFLLVWYYCTLTIRESILINNGSRIKGWWVFHHYVSTFLSGVMLTWPDGLMYQKFRNQFLSFSMYQSFVQFLQYYYQSGCLYRLRALGERHTMDLTVEGFQSWMWRGLTFLLPFLFFGHFWQLFNALTLFNLARDPECKEWQVLMCGFPFLLLFLGNFFTTLRVVHQKFHSQQHGNKKD",2,
"Mus musculus TACAN (TMEM120A) His196Ala, His197Ala mutant (natural protein, UniProt Q8C1E7 1-343, looked up, TMEM120A (TACAN), Mus musculus, full length, residues 1-343, with H196A and H197A; the model of the structure holds residues 9-72, 76-250 and 262-335; Same construct as m1 with the two mutations; co-purified with coenzyme A (small molecule); Expected monomer mass printed as 41,637 Da; also called TACAN^(H196A H197A); His196Ala His197Ala mutant TACAN; source: HEK293S GnTI- cells, BacMam …) MQSPPPDPLGDCLRNWEDLQQDFQGIQETHRLYRLKLEELTKLQANCTNSITRQKKRLQELALVLKKCRPSLPSESMEAAQELENQMKERQGLFFDMEAYLPKKNGLYLSLVLGNVNVTLLSKQAKFAYKDEYEKFKLYLTIILIVISFTCRFLLNSRVTDAAFNFLLVWYYCTLTIRESILINNGSRIKGWWVFAAYVSTFLSGVMLTWPDGLMYQKFRNQFLSFSMYQSFVQFLQYYYQSGCLYRLRALGERHTMDLTVEGFQSWMWRGLTFLLPFLFFGHFWQLFNALTLFNLARDPECKEWQVLMCGFPFLLLFLGNFFTTLRVVHQKFHSQQHGNKKD",,binds
